Test results reported in patent US20160215065A1 (Genentech, published 2016).
Values joined by “and” are separate entries in the source; they are usually repeats but may differ in a detail not shown here. Equal entries are not always repeated. Where two headings read alike, the source gives them in different places.

Assays:
[1] = test system: T1, internally quenched fluorogenic peptide substrate with P1-methylarginine
T1 sequence: IRRSSYSFKK

[2] = test system: T2, internally quenched fluorogenic peptide substrate with P1-arginine
T2 sequence: IRRSSYSFKK

[3] = biological target: T3, internally quenched fluorogenic peptide substrate with P1-methylarginine
T3 chain: IRRSSYSFKK

[4] = biological target: T4, internally quenched fluorogenic peptide substrate with P1-arginine
T4 chain: IRRSSYSFKK

[5] = biological target: T5, mouse zymogen NSP4 (mZ) (mouse, UniProt Q14B24 36-284); assay: BLI affinity class in summary table
T5 construct: mature; Expressed in CHO cells; also called mZ-NSP4; mZ (NSP4); not shown: N-terminal FLAG tag cleavable by enteropeptidase (cleavage after Asp-Asp-Asp-Asp-Lys)
T5 sequence (looked up): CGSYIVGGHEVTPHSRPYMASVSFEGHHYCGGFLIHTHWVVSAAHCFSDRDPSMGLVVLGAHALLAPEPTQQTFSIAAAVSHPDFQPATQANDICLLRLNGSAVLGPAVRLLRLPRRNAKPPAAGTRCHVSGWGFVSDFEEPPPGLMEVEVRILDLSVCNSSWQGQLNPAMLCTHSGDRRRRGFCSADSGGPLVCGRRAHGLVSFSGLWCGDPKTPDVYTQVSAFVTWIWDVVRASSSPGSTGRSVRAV

[6] = biological target: T6, mouse active NSP4 (mA) (mouse, UniProt Q14B24 36-284); assay: BLI affinity class in summary table
T6 construct: mature; also called mA-NSP4; mA (NSP4)
T6 sequence (looked up): T5 sequence (looked up)

[7] = biological target: T7, human active NSP4 (hA) (human, UniProt Q6UWY2 34-283); assay: BLI affinity class in summary table
T7 construct: range 34-283; For crystals partly deglycosylated with Endo F3 (FFR-cmk complex) or fully glycosylated (VLK-cmk complex); also called hA-NSP4; hA (NSP4)
T7 sequence (looked up): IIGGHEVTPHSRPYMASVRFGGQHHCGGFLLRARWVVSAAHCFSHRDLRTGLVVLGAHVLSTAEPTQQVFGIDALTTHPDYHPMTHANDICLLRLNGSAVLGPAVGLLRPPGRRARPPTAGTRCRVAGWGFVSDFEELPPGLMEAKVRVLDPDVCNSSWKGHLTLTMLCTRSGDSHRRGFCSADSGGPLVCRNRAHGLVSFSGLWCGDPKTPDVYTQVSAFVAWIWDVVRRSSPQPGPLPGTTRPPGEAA

[8] = biological target: human zymogen NSP4 (hZ) (human) (UniProt Q6UWY2); assay: competition phage ELISA (phage IC50); soluble hZ-NSP4 against plate-coated NSP4
[9] = biological target: human zymogen NSP4 (hZ) (human) (UniProt Q6UWY2); assay: BLI affinity class in summary table
[10] = biological target: T8, mouse active NSP4 (mA) (mouse), Q14B24; assay: BLI affinity class in summary table; conditions: remark: other sources report otherwise
T8 chain: T5 sequence (looked up)

[11] = biological target: T8, mouse active NSP4 (mA) (mouse), Q14B24; assay: competition phage ELISA (phage IC50); soluble mA-NSP4 against plate-coated NSP4; conditions: remark: other sources report otherwise
[12] = biological target: T9, mouse zymogen NSP4 (mZ) (mouse), Q14B24; assay: BLI affinity class in summary table; conditions: remark: other sources report otherwise
T9 chain: T5 sequence (looked up)

Molecule: Factor Xa
- cleavage of fluorogenic peptide with P1-methylarginine [1]: factor Xa, with a canonical S1 pocket could only cleave unmodified P1-Arg substrate
- cleavage of fluorogenic peptide with P1-arginine [2]: factor Xa, with a canonical S1 pocket could only cleave unmodified P1-Arg substrate

B1: human active NSP4 (hA) (protein)
chain: T7 sequence (looked up)
- cleavage of fluorogenic peptide with P1-methylarginine [3]: NSP4 could indeed cleave after methylarginine
- kcat/KM of fluorogenic peptide cleavage [4]: WT (BEVS) kcat/KM=1.1×10^4±2.1×10^3 M^-1 s^-1

B2: human wild-type NSP4 produced in CHO cells, activated (protein)
chain: T7 sequence (looked up)
- kcat/KM of fluorogenic peptide cleavage [4]: WT (CHO) kcat/KM=7.5×10^3 ±1.1×10^3 M^-1s^-1

B3: anti-NSP4 antibody 2-4 (antibody, human IgG1, V domains shown)
VH: EVQLVESGGGLVQPGGSLRLSCAASGFTFSDYWISWVRQAPGKGLEWVAGISPNNGDTYYADSVKGRFTISADTSKNTAYLQMNSLRAEDTAVYYCAREDDDERDYAMDYWGQGTLVTVSS
VL: DIQMTQSPSSLSASVGDRVTITCRASQDVSTAVAWYQQKPGKAPKLLIYSASFLYSGVPSRFSGSGSGTDFTLTISSLQPEDFATYYCQQSYTTPPTFGQGTKVEIKR
notes: also called clone 2-4
- Kd [5]: < 50 nM
- Kd [6]: < 50 nM
- Kd [7]: < 50 nM
- IC50 [8]: 2.3 nM
- Kd [9]: < 50 nM

B4: anti-NSP4 antibody 5-1 (antibody, human IgG1, V domains shown)
VH: EVQLVESGGGLVQPGGSLRLSCAASGFTFSGSGIHWVRQAPGKGLEWVAWISPTGGNTYYADSVKGRFTISADTSKNTAYLQMNSLRAEDTAVYYCAKSLFHNVAFDYWGQGTLVTVSS
VL: B3 VL
- Kd [10]: < 50 nM
- IC50 [11]: 9.93 nM

B5: anti-NSP4 antibody 1-1 (antibody, human IgG1, V domains shown)
VH: EVQLVESGGGLVQPGGSLRLSCAASGFTFSGSWISWVRQAPGKGLEWVGTISPYNGSTYYADSVKGRFTISADTSKNTAYLQMNSLRAEDTAVYYCARVLRPKVYASVMDYWGQGTLVTVSS
VL: B3 VL
- IC50 [8]: 155 nM
- Kd [9]: > 50 nM and < 1000 nM

B6: anti-NSP4 antibody 5-3 (antibody, V domains shown)
VH: EVQLVESGGGLVQPGGSLRLSCAASGFTFSGNDISWVRQAPGKGLEWVAGISPYGGSTYYADSVKGRFTISADTSKNTAYLQMNSLRAEDTAVYYCARRVSFYSRHAGMDYWGQGTLVTVSS
VL: B3 VL
- Kd [10]: < 50 nM
- IC50 [11]: 319 nM

B7: anti-NSP4 antibody 5-2 (antibody, V domains shown)
VH: EVQLVESGGGLVQPGGSLRLSCAASGFTFSNTYISWVRQAPGKGLEWVGFIYPANGATYYADSVKGRFTISADTSKNTAYLQMNSLRAEDTAVYYCARRYRLSFDYWGQGTLVTVSS
VL: B3 VL
- Kd [10]: < 50 nM
- Kd [12]: > 50 nM and < 1000 nM
- IC50 [11]: 25 nM

B8: anti-NSP4 antibody 2-2 (antibody, human IgG1, V domains shown)
VH: EVQLVESGGGLVQPGGSLRLSCAASGFTFSSTAISWVRQAPGKGLEWVGEIYPSDGYTDYADSVKGRFTISADTSKNTAYLQMNSLRAEDTAVYYCARVKWAVSSLGVMDYWGQGTLVTVSS
VL: B3 VL
notes: also called clone 2-2
- Kd [5]: < 50 nM
- IC50 [8]: 10.4 nM
- Kd [9]: < 50 nM

B9: anti-NSP4 antibody 5-4 (antibody, V domains shown)
VH: EVQLVESGGGLVQPGGSLRLSCAASGFTFTSYAISWVRQAPGKGLEWVAGISPSNGYTNYADSVKGRFTISADTSKNTAYLQMNSLRAEDTAVYYCARAGRWTHSDIDYWGQGTLVTVSS
VL: B3 VL
- Kd [10]: < 50 nM
- IC50 [11]: 60.5 nM

B10: anti-NSP4 antibody 4-2 (antibody, human IgG1, V domains shown)
VH: EVQLVESGGGLVQPGGSLRLSCAASGFTFSGSDISWVRQAPGKGLEWVGEIYPSNGDTYYADSVKGRFTISADTSKNTAYLQMNSLRAEDTAVYYCARSVRPSWWAMDYWGQGTLVTVSS
VL: B3 VL
notes: also called clone 4-2
- Kd [7]: < 50 nM
- Kd [9]: > 50 nM and < 1000 nM

B11: anti-NSP4 antibody 3-2 (antibody, human IgG1, V domains shown)
VH: EVQLVESGGGLVQPGGSLRLSCAASGFTFSDYSISWVRQAPGKGLEWVGEINPAGGATYYADSVKGRFTISADTSKNTAYLQMNSLRAEDTAVYYCARGDFPFWSDAYYVMDYWGQGTLVTVSS
VL: B3 VL
notes: also called Ab 3-2; clone 3-2
- Kd [5]: < 50 nM
- Kd [6]: < 50 nM

B12: anti-NSP4 antibody 2-5 (antibody, human IgG1, V domains shown)
VH: EVQLVESGGGLVQPGGSLRLSCAASGFTFTGYGISWVRQAPGKGLEWVGWIYPASGATYYADSVKGRFTISADTSKNTAYLQMNSLRAEDTAVYYCARHRAFDWYPYYIGSSVMDYWGQGTLVTVSS
VL: B3 VL
notes: also called clone 2-5
- Kd [5]: < 50 nM
- IC50 [8]: 22 nM
- Kd [9]: < 50 nM

B13: anti-NSP4 antibody 4-4 (antibody, human IgG1, V domains shown)
VH: EVQLVESGGGLVQPGGSLRLSCAASGFTFTSTSIHWVRQAPGKGLEWVAEITPHGGYTNYADSVKGRFTISADTSKNTAYLQMNSLRAEDTAVYYCARGRTKWGWLYGMDYWGQGTLVTVSS
VL: B3 VL
notes: also called clone 4-4
- Kd [7]: < 50 nM
- Kd [9]: > 50 nM and < 1000 nM

B14: anti-NSP4 antibody 1-2 (antibody, human IgG1, V domains shown)
VH: EVQLVESGGGLVQPGGSLRLSCAASGFTFSGYSIHWVRQAPGKGLEWVAGISPTNGYTDYADSVKGRFTISADTSKNTAYLQMNSLRAEDTAVYYCARLVFYRGVMDYWGQGTLVTVSS
VL: B3 VL
- IC50 [8]: 22.1 nM
- Kd [9]: < 50 nM

B15: anti-NSP4 antibody 2-1 (antibody, human IgG1, V domains shown)
VH: EVQLVESGGGLVQPGGSLRLSCAASGFTFTDYSIHWVRQAPGKGLEWVAEIYPYSGDTYYADSVKGRFTISADTSKNTAYLQMNSLRAEDTAVYYCARDGDGWFDWAMDYWGQGTLVTVSS
VL: B3 VL
notes: also called clone 2-1
- Kd [5]: < 50 nM
- Kd [6]: < 50 nM
- Kd [7]: < 50 nM
- IC50 [8]: 7.62 nM
- Kd [9]: < 50 nM

B16: anti-NSP4 antibody 1-3 (antibody, human IgG1, V domains shown)
VH: EVQLVESGGGLVQPGGSLRLSCAASGFTFSDNWISWVRQAPGKGLEWVGYIYPASGYTDYADSVKGRFTISADTSKNTAYLQMNSLRAEDTAVYYCASDSPHAYWYAMDYWGQGTLVTVSS
VL: B3 VL
- IC50 [8]: 52 nM
- Kd [9]: > 50 nM and < 1000 nM

B17: anti-NSP4 antibody 2-3 (antibody, human IgG1, V domains shown)
VH: EVQLVESGGGLVQPGGSLRLSCAASGFTFTDSDISWVRQAPGKGLEWVAWISPSDGATDYADSVKGRFTISADTSKNTAYLQMNSLRAEDTAVYYCAHEASDDDYAIDYWGQGTLVTVSS
VL: B3 VL
notes: also called clone 2-3
- Kd [5]: < 50 nM
- Kd [6]: < 50 nM
- Kd [7]: < 50 nM
- IC50 [8]: 3.07 nM
- Kd [9]: < 50 nM

B18: anti-NSP4 antibody 1-5 (antibody, human IgG1, V domains shown)
VH: EVQLVESGGGLVQPGGSLRLSCAASGFTFTNNSISWVRQAPGKGLEWVGAISPNNGSTYYADSVKGRFTISADTSKNTAYLQMNSLRAEDTAVYYCARNAWHYSWVGVMDYWGQGTLVTVSS
VL: B3 VL
- IC50 [8]: 114 nM
- Kd [9]: > 50 nM and < 1000 nM

B19: anti-NSP4 antibody 3-5 (antibody, human IgG1, V domains shown)
VH: EVQLVESGGGLVQPGGSLRLSCAASGFTFSDNDISWVRQAPGKGLEWVGSISPDNGDTNYADSVKGRFTISADTSKNTAYLQMNSLRAEDTAVYYCARDDVPAVFTSAMDYWGQGTLVTVSS
VL: B3 VL
notes: also called Ab 3-5; Ab35
- Kd [5]: < 50 nM
- Kd [6]: < 50 nM
- Kd [7]: < 50 nM
- Kd [9]: < 50 nM
